# Measured values reported in patent publication US20220259318A1 (Hoffmann-La Roche, published 2022).
# B1: BCMA-TCB (bispecific antibody, human IgG1, kappa, L234A L235A)
# light 1: EIVLTQSPGTLSLSPGERATLSCRASQSVSAYYLAWYQQKPGQAPRLLMYDASIRATGIPDRFSGSGSGTDFTLTISRLEPEDFAVYYCQQYERWPLTFGQGTKVEIKRTVAAPSVFIFPPSDRKLKSGTASVVCLLNNFYPREAKVQWKVDNALQSGNSQESVTEQDSKDSTYSLSSTLTLSKADYEKHKVYACEVTHQGLSSPVTKSFNRGEC
# light 2: EVQLLESGGGLVQPGGSLRLSCAASGFTFSTYAMNWVRQAPGKGLEWVSRIRSKYNNYATYYADSVKGRFTISRDDSKNTLYLQMNSLRAEDTAVYYCVRHGNFGNSYVSWFAYWGQGTLVTVSSASVAAPSVFIFPPSDEQLKSGTASVVCLLNNFYPREAKVQWKVDNALQSGNSQESVTEQDSKDSTYSLSSTLTLSKADYEKHKVYACEVTHQGLSSPVTKSFNRGEC
# heavy 1: EVQLLESGGGLVQPGGSLRLSCAASGFTFSSYAMNWVRQAPGKGLEWVSAITASGGSTYYADSVKGRFTISRDNSKNTLYLQMNSLRAEDTAVYYCARYWPMSLWGQGTLVTVSSASTKGPSVFPLAPSSKSTSGGTAALGCLVEDYFPEPVTVSWNSGALTSGVHTFPAVLQSSGLYSLSSVVTVPSSSLGTQTYICNVNHKPSNTKVDEKVEPKSCDKTHTCPPCPAPEAAGGPSVFLFPPKPKDTLMISRTPEVTCVVVDVSHEDPEVKFNWYVDGVEVHNAKTKPREEQYNSTYRVVSVLTVLHQDWLNGKEYKCKVSNKALGAPIEKTISKAKGQPREPQVCTLPPSRDELTKNQVSLSCAVKGFYPSDIAVEWESNGQPENNYKTTPPVLDSDGSFFLVSKLTVDKSRWQQGNVFSCSVMHEALHNHYTQKSLSLSPGK
# heavy 2: not shown
# Assays:
# Assay in all cases: cell-based or functional assay
# BCMA [1] = molecular target: T1, BCMA (UniProt Q02223 1-184, limits assumed)
# T1 sequence (looked up): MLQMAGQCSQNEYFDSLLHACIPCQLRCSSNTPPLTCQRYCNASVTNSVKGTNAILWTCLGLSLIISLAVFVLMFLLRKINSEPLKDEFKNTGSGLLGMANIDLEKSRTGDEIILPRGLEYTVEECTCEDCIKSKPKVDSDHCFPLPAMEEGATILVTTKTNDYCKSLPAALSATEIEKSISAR
# BCMA [2] = molecular target: T1, BCMA; remark: listed apart in the source
# BCMA [3] = molecular target: T1, BCMA; remark: listed apart in the source
# BCMA [4] = molecular target: T1, BCMA; remark: listed apart in the source
binder,measurement,setting,value
B1,"EC50 in vitro killing assay, AMO-1",BCMA [1],518 pM
same,"EC50 in vitro killing assay, EJM",BCMA [1],132 pM
same,"EC50 in vitro killing assay, L363",BCMA [1],127 pM
same,"EC50 in vitro killing assay, MOLP-2",BCMA [1],32 pM
same,"EC50 in vitro killing assay, NCI-H929",BCMA [1],311 pM
same,"EC50 in vitro killing assay, OPM-2",BCMA [1],33 pM
same,"EC50 in vitro killing assay, RPMI",BCMA [1],11 pM
same,"EC50 (pM), TCB-mediated tumor cell lysis, AMO-1",BCMA [2],137 pM
same,"EC50 (pM), TCB-mediated tumor cell lysis, IM-9",BCMA [2],55.7 pM
same,"EC50 (pM), TCB-mediated tumor cell lysis, LP-1",BCMA [2],76.4 pM
same,"EC50 (pM), TCB-mediated tumor cell lysis, NCI-H929",BCMA [2],171 pM
same,"AUC, TCB-mediated tumor cell lysis, AMO-1",BCMA [3],4.73e+07
same,"AUC, TCB-mediated tumor cell lysis, IM-9",BCMA [3],1.1e+07
same,"AUC, TCB-mediated tumor cell lysis, LP-1",BCMA [3],1.11e+07
same,"AUC, TCB-mediated tumor cell lysis, NCI-H929",BCMA [3],1.07e+07
same,"EC50 (pM), activation of autologous T-cells (CD69 on CD8 T cells) with a primary MM sample",BCMA [4],52.5 pM
